In the supplement of paper PMC11246515:
± gives the standard deviation of the averaged measurements.

Test: total protein half-life in vivo (active degradation + dilution); higher = more stable protein
[1] = E. coli NCM3722 delta-clpP delta-lon delta-hslV, growth: N-lim chemostat, doubling time 6 h
[2] = E. coli NCM3722 delta-clpP, growth: N-lim chemostat, doubling time 6 h
[3] = E. coli NCM3722 delta-hslV, growth: N-lim chemostat, doubling time 6 h
[4] = E. coli NCM3722 delta-lon, growth: N-lim chemostat, doubling time 6 h
[5] = E. coli NCM3722 delta-smpB, growth: N-lim chemostat, doubling time 6 h
[6] = wild type E. coli NCM3722, growth: C-lim chemostat, doubling time 3 h
[7] = wild type E. coli NCM3722, growth: C-lim chemostat, doubling time 6 h
[8] = wild type E. coli NCM3722, growth: C-lim chemostat, doubling time 12 h
[9] = wild type E. coli NCM3722, growth: N-lim chemostat, doubling time 6 h
[10] = wild type E. coli NCM3722, growth: N-lim chemostat, doubling time 12 h
[11] = wild type E. coli NCM3722, growth: P-lim chemostat, doubling time 6 h
[12] = wild type E. coli NCM3722, growth: P-lim chemostat, doubling time 12 h

Row | Sequence | total protein half-life in vivo [1] [h] | total protein half-life in vivo [2] [h] | total protein half-life in vivo [3] [h] | total protein half-life in vivo [4] [h] | total protein half-life in vivo [5] [h] | total protein half-life in vivo [6] [h] | total protein half-life in vivo [7] [h] | total protein half-life in vivo [8] [h] | total protein half-life in vivo [9] [h] | total protein half-life in vivo [10] [h] | total protein half-life in vivo [11] [h] | total protein half-life in vivo [12] [h]
1 | MKKIAIVGAGPTGIYTLFSLLQQQTPLSISIFEQADEAGVGMPYSDEENSKMMLANIASIEIPPIYCTYLEWLQKQEDSHLQRYGVKKETLHDRQFLPRILLGEYFRDQFLRLVDQARQQKFAVAVYESCQVTDLQITNAGVMLATNQDLPSETFDLAVIATGHVWPDEEEATRTYFPSPWSGLMEAKVDACNVGIMGTSLSGLDAAMAVAIQHGSFIEDDKQHVVFHRDNASEKLNITLLSRTGILPEADFYCPIPYEPLHIVTDQALNAEIQKGEEGLLDRVFRLIVEEIKFADPDWSQRIALESLNVDSFAQAWFAERKQRDPFDWAEKNLQEVERNKREKHTVPWRYVILRLHEAVQEIVPHLNEHDHKRFSKGLARVFIDNYAAIPSESIRRLLALREAGIIHILALGEDYKMEINESRTVLKTEDNSYSFDVFIDARGQRPLKVKDIPFPGLREQLQKTGDEIPDVGEDYTLQQPEDIRGRVAFGALPWLMHDQPFVQGLTACAEIGEAMARAVVKPASRARRRLSFD | 4.97 ± 0.15 | 4.38 ± 0.22 | 4.07 ± 0.29 | 4.14 ± 0.29 | 3.75 ± 0.084 | 3.05 ± 0.16 | 5.2 ± 0.33 | 8.04 ± 1.7 | 3.89 ± 0.12 | 6.3 ± 0.43 | 5.59 ± 0.087 | 9.95 ± 0.48
2 | MNNHFGKGLMAGLKATHADSAVNVTKFCADYKRGFVLGYSHRMYEKTGDRQLSAWEAGILTRRYGLDKEMVMDFFRENNSCSTLRFFMAGYRLEN | 4.99 ± 0.16 |  |  |  |  |  |  |  |  |  |  | 
3 | MKQHQSADNSQGQLYIVPTPIGNLADITQRALEVLQAVDLIAAEDTRHTGLLLQHFGINARLFALHDHNEQQKAETLLAKLQEGQNIALVSDAGTPLINDPGYHLVRTCREAGIRVVPLPGPCAAITALSAAGLPSDRFCYEGFLPAKSKGRRDALKAIEAEPRTLIFYESTHRLLDSLEDIVAVLGESRYVVLARELTKTWETIHGAPVGELLAWVKEDENRRKGEMVLIVEGHKAQEEDLPADALRTLALLQAELPLKKAAALAAEIHGVKKNALYKYALEQQG | 6.24 ± 1.1 | 5.77 ± 0.73 | 5.85 ± 0.46 | 5.1 ± 0.5 | 5.25 ± 0.13 | 3.41 ± 0.11 |  | 11.8 ± 2.3 | 5.57 ± 0.17 | 10.5 ± 0.56 | 5.46 ± 0.11 | 12.4 ± 0.41
4 | MKKLLRLFFPLSLRVRFLLATAAVVLVLSLAYGMVALIGYSVSFDKTTFRLLRGESNLFYTLAKWENNKLHVELPENIDKQSPTMTLIYDENGQLLWAQRDVPWLMKMIQPDWLKSNGFHEIEADVNDTSLLLSGDHSIQQQLQEVREDDDDAEMTHSVAVNVYPATSRMPKLTIVVVDTIPVELKSSYMVWSWFIYVLSANLLLVIPLLWVAAWWSLRPIEALAKEVRELEEHNRELLNPATTRELTSLVRNLNRLLKSERERYDKYRTTLTDLTHSLKTPLAVLQSTLRSLRSEKMSVSDAEPVMLEQISRISQQIGYYLHRASMRGGTLLSRELHPVAPLLDNLTSALNKVYQRKGVNISLDISPEISFVGEQNDFVEVMGNVLDNACKYCLEFVEISARQTDEHLYIVVEDDGPGIPLSKREVIFDRGQRVDTLRPGQGVGLAVAREITEQYEGKIVAGESMLGGARMEVIFGRQHSAPKDE | 7.01 ± 1.1 | 6.22 ± 0.32 | 5.85 ± 0.59 | 6.87 ± 1.1 | 6.02 ± 0.93 | 3.26 ± 0.4 | 5.936 ± 0.044 | 10.2 ± 1.2 | 6.046 ± 0.045 | 12.5 ± 0.13 | 6.36 ± 0.37 | 13.5 ± 1.9
5 | MSSVSTSGSGAPKSSFSFGRIWDQYGMLVVFAVLFIACAIFVPNFATFINMKGLGLAISMSGMVACGMLFCLASGDFDLSVASVIACAGVTTAVVINLTESLWIGVAAGLLLGVLCGLVNGFVIAKLKINALITTLATMQIVRGLAYIISDGKAVGIEDESFFALGYANWFGLPAPIWLTVACLIIFGLLLNKTTFGRNTLAIGGNEEAARLAGVPVVRTKIIIFVLSGLVSAIAGIILASRMTSGQPMTSIGYELIVISACVLGGVSLKGGIGKISYVVAGILILGTVENAMNLLNISPFAQYVVRGLILLAAVIFDRYKQKAKRTV [P0AE26] |  |  |  |  |  | 2.54 ± 0.33 | 4.04 ± 0.19 | 7.44 ± 0.65 |  |  |  | 
6 | MKILVDENMPYARDLFSRLGEVTAVPGRPIPVAQLADADALMVRSVTKVNESLLAGKPIKFVGTATAGTDHVDEAWLKQAGIGFSAAPGCNAIAVVEYVFSSLLMLAERDGFSLYDRTVGIVGVGNVGRRLQARLEALGIKTLLCDPPRADRGDEGDFRSLDELVQRADILTFHTPLFKDGPYKTLHLADEKLIRSLKPGAILINACRGAVVDNTALLTCLNEGQKLSVVLDVWEGEPELNVELLKKVDIGTSHIAGYTLEGKARGTTQVFEAYSKFIGHEQHVALDTLLPAPEFGRITLHGPLDQPTLKRLVHLVYDVRRDDAPLRKVAGIPGEFDKLRKNYLERREWSSLYVICDDASAASLLCKLGFNAVHHPAR | 5.83 ± 1.3 | 5.47 ± 1.3 | 5.17 ± 0.28 | 5.42 ± 0.064 | 4.62 ± 0.18 | 3 ± 0.38 | 5.58 ± 0.23 | 12.6 ± 3.2 | 4.72 ± 0.047 | 8.268 ± 0.016 | 5.71 ± 0.38 | 11.1 ± 0.13
